In the data set the test system is Purified recombinant SF2.

On to Recombinant IKKi, for which the “in vitro kinase assay” value is listed as “IKKi indeed was able to phosphorylate SF2 in vitro”.

Source of the values: patent US20230009539.
